Publication doi:10.1101/2021.02.01.429088 (bioRxiv, 2021)
Read-outs that look alike come from different tables or passages of the source.

B1: T3D σ1 Body-Head (170-455), wild type (domain or fragment, mammalian orthoreovirus T3D (Dearing))
chain: GAMAVTSAGAPLSIRNNRMTMGLNDGLTLSGNNLAIRLPGNTGLNIQNGGLQFRFNTDQFQIVNNNLTLKTTVFDSINSRIGATEQSYVASAVTPLRLNSSTKVLDMLIDSSTLEINSSGQLTVRSTSPNLRYPIADVSGGIGMSPNYRFRQSMWIGIVSYSGSGLNWRVQVNSDIFIVDDYIHICLPAFDGFSIADGGDLSLNFVTGLLPPLLTGDTEPAFHNDVVTYGAQTVAIGLSSGGAPQYMSKNLWVEQWQDGVLRLRVEGGGSITHSNSKWPAMTVSYPRSFT
B2: T3D σ1 Head (293-455), wild type (domain or fragment, mammalian orthoreovirus T3D (Dearing))
chain: GAMASPNLRYPIADVSGGIGMSPNYRFRQSMWIGIVSYSGSGLNWRVQVNSDIFIVDDYIHICLPAFDGFSIADGGDLSLNFVTGLLPPLLTGDTEPAFHNDVVTYGAQTVAIGLSSGGAPQYMSKNLWVEQWQDGVLRLRVEGGGSITHSNSKWPAMTVSYPRSFT
B3: T3D σ1 Tail-Body (25-291) (domain or fragment, mammalian orthoreovirus T3D (Dearing))
chain: GAMASKGLESRVSALEKTSQIHSDTILRITQGLDDANKRIIALEQSRDDLVASVSDAQLAISRLESSIGALQTVVNGLDSSVTQLGARVGQLETGLAELRVDHDNLVARVDTAERNIGSLTTELSTLTLRVTSIQADFESRISTLERTAVTSAGAPLSIRNNRMTMGLNDGLTLSGNNLAIRLPGNTGLNIQNGGLQFRFNTDQFQIVNNNLTLKTTVFDSINSRIGATEQSYVASAVTPLRLNSSTKVLDMLIDSSTLEINSSGQLTVRS

Tests used:
[1] = target: the molecule itself; assay: SEC
[2] = target: the molecule itself; assay: SEC; remark: listed apart in the source

Row | Protein | stoichiometry N [1] | stoichiometry N [2]
1 | B1 | 3 | 
2 | B2 |  | 3
3 | B3 |  | 3
